From patent US20250076311A1 (Chugai, published 2025)

How the values were obtained:
[1] = molecular target: T1, cynomolgus monkey FcγRIIa1 extracellular domain, His-tagged (cynomolgus monkey); experiment: SPR Biacore, antibody captured, FcgR analyte
T1 construct: also called cyno FcγRIIa1; cynoFcgRIIa1; not shown: C-terminal His-tag
T1 chain: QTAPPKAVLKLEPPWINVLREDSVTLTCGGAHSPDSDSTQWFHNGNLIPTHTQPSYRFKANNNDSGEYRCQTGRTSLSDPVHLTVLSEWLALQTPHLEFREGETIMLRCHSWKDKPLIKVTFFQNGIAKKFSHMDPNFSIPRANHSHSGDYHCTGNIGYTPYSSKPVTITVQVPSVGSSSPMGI

[2] = molecular target: T2, cynomolgus monkey FcγRIIa2 extracellular domain, His-tagged (cynomolgus monkey); experiment: SPR Biacore, KD(SG1)/KD(variant)
T2 construct: also called cyno FcγRIIa2; cynoFcgRIIa2; not shown: C-terminal His-tag
T2 chain: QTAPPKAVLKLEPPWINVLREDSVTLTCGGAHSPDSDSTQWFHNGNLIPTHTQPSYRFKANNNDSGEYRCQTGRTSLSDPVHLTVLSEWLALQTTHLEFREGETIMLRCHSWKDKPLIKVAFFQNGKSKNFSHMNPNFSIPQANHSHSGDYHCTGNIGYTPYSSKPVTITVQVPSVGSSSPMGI

[3] = molecular target: T3, cynomolgus monkey FcγRIIIaS extracellular domain with C-terminal His-tag (cynomolgus monkey, UniProt A3RFZ7 21-206 (rhesus entry)); experiment: SPR (BIACORE), antibody captured, FcgR analyte
T3 construct: also called cyno FcgRIIIaS; cynoFcγRIIIaS; not shown: His-tag added to the C-terminus
T3 sequence (A3RFZ7 21-206): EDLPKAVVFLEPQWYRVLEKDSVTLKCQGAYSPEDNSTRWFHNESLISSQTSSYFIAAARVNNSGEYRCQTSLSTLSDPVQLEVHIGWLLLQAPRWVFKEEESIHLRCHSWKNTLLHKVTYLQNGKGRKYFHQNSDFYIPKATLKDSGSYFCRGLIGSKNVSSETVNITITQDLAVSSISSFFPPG

[4] = molecular target: T4, cynomolgus monkey FcγRIIa3 extracellular domain with C-terminal His-tag (cynomolgus monkey); experiment: SPR (BIACORE); KD of SG1 / KD of variant
T4 construct: also called cyno FcgRIIa3; cynoFcγRIIa3; not shown: His-tag added to the C-terminus
T4 chain: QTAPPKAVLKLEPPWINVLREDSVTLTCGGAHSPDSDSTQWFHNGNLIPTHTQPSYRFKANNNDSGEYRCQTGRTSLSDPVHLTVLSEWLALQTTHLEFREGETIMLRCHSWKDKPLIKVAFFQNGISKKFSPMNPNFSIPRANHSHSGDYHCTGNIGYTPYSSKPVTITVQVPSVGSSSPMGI

[5] = molecular target: T3, cynomolgus monkey FcγRIIIaS …; experiment: SPR (BIACORE); KD of SG1 / KD of variant
[6] = molecular target: T5, cynomolgus monkey FcγRIIb extracellular domain with C-terminal His-tag (cynomolgus monkey); experiment: SPR (BIACORE); KD of SG1 / KD of variant
T5 construct: also called cyno FcgRIIb; cynoFcγRIIb; not shown: His-tag added to the C-terminus
T5 chain: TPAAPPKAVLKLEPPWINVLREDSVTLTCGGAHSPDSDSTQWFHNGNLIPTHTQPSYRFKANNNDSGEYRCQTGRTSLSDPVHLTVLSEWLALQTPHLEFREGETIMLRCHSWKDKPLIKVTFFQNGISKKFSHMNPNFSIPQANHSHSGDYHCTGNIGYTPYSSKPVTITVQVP

[7] = molecular target: T6, human FcγRIIaH extracellular domain with C-terminal His-tag (human, UniProt P12318 34-217); experiment: SPR (BIACORE); KD of SG1 / KD of variant
T6 construct: also called human FcgRIIaH; FcγRIIa type H; not shown: His-tag added to the C-terminus
T6 sequence: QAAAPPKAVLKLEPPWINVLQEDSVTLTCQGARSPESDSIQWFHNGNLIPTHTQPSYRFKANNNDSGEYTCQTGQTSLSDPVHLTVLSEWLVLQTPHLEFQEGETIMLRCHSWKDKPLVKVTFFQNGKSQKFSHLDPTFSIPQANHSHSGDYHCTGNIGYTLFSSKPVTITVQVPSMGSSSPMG

[8] = molecular target: T7, cynomolgus monkey FcγRIIa1 extracellular domain with C-terminal His-tag (cynomolgus monkey); experiment: SPR (BIACORE), antibody captured, FcgR analyte
T7 construct: also called cyno FcgRIIa1; cynoFcγRIIa1; not shown: His-tag added to the C-terminus
T7 chain: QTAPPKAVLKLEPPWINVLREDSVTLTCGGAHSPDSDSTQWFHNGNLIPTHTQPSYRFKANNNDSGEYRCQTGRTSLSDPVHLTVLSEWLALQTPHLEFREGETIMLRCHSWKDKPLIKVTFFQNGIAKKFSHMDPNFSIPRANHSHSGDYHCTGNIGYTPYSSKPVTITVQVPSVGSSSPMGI

[9] = molecular target: T6, human FcγRIIaH extracellular domain …; experiment: SPR (BIACORE), antibody captured, FcgR analyte
[10] = molecular target: T7, cynomolgus monkey FcγRIIa1 …; experiment: SPR (BIACORE); KD of SG1 / KD of variant
[11] = molecular target: T4, cynomolgus monkey FcγRIIa3 …; experiment: SPR (BIACORE), antibody captured, FcgR analyte

B1: M103205H795-MY011/M103202L889-SK1 (antibody, human IgG1, kappa, name in EU numbering)
heavy: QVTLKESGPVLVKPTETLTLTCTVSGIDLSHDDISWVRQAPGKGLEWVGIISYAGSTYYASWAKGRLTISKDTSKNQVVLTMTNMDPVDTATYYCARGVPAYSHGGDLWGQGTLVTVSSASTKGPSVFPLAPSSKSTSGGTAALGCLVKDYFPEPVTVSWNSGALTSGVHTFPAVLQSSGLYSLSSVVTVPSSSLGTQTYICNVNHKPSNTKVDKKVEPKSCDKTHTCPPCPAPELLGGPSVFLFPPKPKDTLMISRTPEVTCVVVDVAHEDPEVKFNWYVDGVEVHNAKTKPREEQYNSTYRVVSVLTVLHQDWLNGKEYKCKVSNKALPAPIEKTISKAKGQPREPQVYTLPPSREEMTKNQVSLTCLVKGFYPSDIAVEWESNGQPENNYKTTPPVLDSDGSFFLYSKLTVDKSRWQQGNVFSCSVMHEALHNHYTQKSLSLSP
light: DIVMTQSPATLSLSPGERATLSCTSSQSVYHANWLSWFQQKPGQPPKLLIYWASTLAYGVPSRFSGSGSGTDFTLTISSLQPEDAATYYCAGGYGGGRYAFGQGTKVEIKRTVAAPSVFIFPPSDEQLKSGTASVVCLLNNFYPREAKVQWKVDNALQSGNSQESVTEQDSKDSTYSLSSTLTLSKADYEKHKVYACEVTHQGLSSPVTKSFNRGEC
notes: Substitution introduced into M103205H795-SG1; EU numbering
Kd [1]: 2300 nM | KD fold (SG1 = 1) [2]: 1.6 fold

B2: M103205H795-MY050/M103202L889-SK1 (antibody, human IgG1, kappa, name in EU numbering)
heavy: QVTLKESGPVLVKPTETLTLTCTVSGIDLSHDDISWVRQAPGKGLEWVGIISYAGSTYYASWAKGRLTISKDTSKNQVVLTMTNMDPVDTATYYCARGVPAYSHGGDLWGQGTLVTVSSASTKGPSVFPLAPSSKSTSGGTAALGCLVKDYFPEPVTVSWNSGALTSGVHTFPAVLQSSGLYSLSSVVTVPSSSLGTQTYICNVNHKPSNTKVDKKVEPKSCDKTHTCPPCPAPELLNGPSVFLFPPKPKDTLMISRTPEVTCVVVDVAEEDPEVKFNWYVDGVEVHNAKTKPREEQYNSTYRVVSVLTVLHQDWLNGKEYKCKVSNKALPAPIEKTISKAKGQPREPQVYTLPPSREEMTKNQVSLTCLVKGFYPSDIAVEWESNGQPENNYKTTPPVLDSDGSFFLYSKLTVDKSRWQQGNVFSCSVMHEALHNHYTQKSLSLSP
light: DIVMTQSPATLSLSPGERATLSCTSSQSVYHANWLSWFQQKPGQPPKLLIYWASTLAYGVPSRFSGSGSGTDFTLTISSLQPEDAATYYCAGGYGGGRYAFGQGTKVEIKRTVAAPSVFIFPPSDEQLKSGTASVVCLLNNFYPREAKVQWKVDNALQSGNSQESVTEQDSKDSTYSLSSTLTLSKADYEKHKVYACEVTHQGLSSPVTKSFNRGEC
notes: Fc variant of MS1032LO06-SG1; positions in EU numbering
Kd [3]: 1700 nM | KD fold (SG1 = 1) [4]: 0.5 fold | KD fold (SG1 = 1) [5]: 0.21 fold | KD fold (SG1 = 1) [6]: 1.3 fold | KD fold (SG1 = 1) [7]: 0.3 fold

B3: M103205H795-MY147/M103202L889-SK1 (antibody, human IgG1, kappa, name in EU numbering)
heavy: QVTLKESGPVLVKPTETLTLTCTVSGIDLSHDDISWVRQAPGKGLEWVGIISYAGSTYYASWAKGRLTISKDTSKNQVVLTMTNMDPVDTATYYCARGVPAYSHGGDLWGQGTLVTVSSASTKGPSVFPLAPSSKSTSGGTAALGCLVKDYFPEPVTVSWNSGALTSGVHTFPAVLQSSGLYSLSSVVTVPSSSLGTQTYICNVNHKPSNTKVDKKVEPKSCDKTHTCPPCPAPELWNGPSVFLFPPKPKDTLMISRTPEVTCVVVDVSEEDPEVKFNWYVDGVEVHNAKTKPREEQYNSTYRVVSVLTVLHQDWLNGKEYKCKVSNKALPAPIEKTISKAKGQPREPQVYTLPPSREEMTKNQVSLTCLVKGFYPSDIAVEWESNGQPENNYKTTPMVLDSDGSFFLYSKLTVDKSRWQQGNVFSCSVMHEALHNHYTQKSLSLSP
light: DIVMTQSPATLSLSPGERATLSCTSSQSVYHANWLSWFQQKPGQPPKLLIYWASTLAYGVPSRFSGSGSGTDFTLTISSLQPEDAATYYCAGGYGGGRYAFGQGTKVEIKRTVAAPSVFIFPPSDEQLKSGTASVVCLLNNFYPREAKVQWKVDNALQSGNSQESVTEQDSKDSTYSLSSTLTLSKADYEKHKVYACEVTHQGLSSPVTKSFNRGEC
notes: as for B2
Kd [3]: 5500 nM | KD fold (SG1 = 1) [5]: 0.07 fold | KD fold (SG1 = 1) [6]: 1.9 fold

B4: M103205H795-MY141/M103202L889-SK1 (antibody, human IgG1, kappa, name in EU numbering)
heavy: QVTLKESGPVLVKPTETLTLTCTVSGIDLSHDDISWVRQAPGKGLEWVGIISYAGSTYYASWAKGRLTISKDTSKNQVVLTMTNMDPVDTATYYCARGVPAYSHGGDLWGQGTLVTVSSASTKGPSVFPLAPSSKSTSGGTAALGCLVKDYFPEPVTVSWNSGALTSGVHTFPAVLQSSGLYSLSSVVTVPSSSLGTQTYICNVNHKPSNTKVDKKVEPKSCDKTHTCPPCPAPELLNGPSVFLFPPKPKDTLMISRTPEVTCVVVDVAHEDPEVKFNWYVDGVEVHNAKTKPREEQYNSTYRVVSVLTVLHQDWLNGKEYKCKVSNKALPAPIEKTISKAKGQPREPQVYTLPPSREEMTKNQVSLTCLVKGFYPSDIAVEWESNGQPENNYKTTPMVLDSDGSFFLYSKLTVDKSRWQQGNVFSCSVMHEALHNHYTQKSLSLSP
light: DIVMTQSPATLSLSPGERATLSCTSSQSVYHANWLSWFQQKPGQPPKLLIYWASTLAYGVPSRFSGSGSGTDFTLTISSLQPEDAATYYCAGGYGGGRYAFGQGTKVEIKRTVAAPSVFIFPPSDEQLKSGTASVVCLLNNFYPREAKVQWKVDNALQSGNSQESVTEQDSKDSTYSLSSTLTLSKADYEKHKVYACEVTHQGLSSPVTKSFNRGEC
notes: as for B2
Kd [3]: 4700 nM | Kd [8]: 2200 nM | Kd [9]: 1300 nM | KD fold (SG1 = 1) [4]: 0.5 fold | KD fold (SG1 = 1) [5]: 0.08 fold | KD fold (SG1 = 1) [7]: 0.6 fold

B5: M103205H795-MY073/M103202L889-SK1 (antibody, human IgG1, kappa, name in EU numbering)
heavy: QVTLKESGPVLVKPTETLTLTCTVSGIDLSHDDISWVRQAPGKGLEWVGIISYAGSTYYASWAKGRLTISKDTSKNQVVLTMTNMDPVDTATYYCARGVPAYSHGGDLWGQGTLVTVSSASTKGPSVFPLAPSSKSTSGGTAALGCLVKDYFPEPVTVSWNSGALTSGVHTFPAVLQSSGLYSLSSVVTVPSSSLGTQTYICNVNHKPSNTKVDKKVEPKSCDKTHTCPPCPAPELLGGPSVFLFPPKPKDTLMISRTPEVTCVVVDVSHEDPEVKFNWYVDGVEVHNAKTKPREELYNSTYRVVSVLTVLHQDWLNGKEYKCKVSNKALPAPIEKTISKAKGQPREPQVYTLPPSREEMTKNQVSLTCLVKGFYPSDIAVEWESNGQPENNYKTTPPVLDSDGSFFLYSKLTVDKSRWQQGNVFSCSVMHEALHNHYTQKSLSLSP
light: DIVMTQSPATLSLSPGERATLSCTSSQSVYHANWLSWFQQKPGQPPKLLIYWASTLAYGVPSRFSGSGSGTDFTLTISSLQPEDAATYYCAGGYGGGRYAFGQGTKVEIKRTVAAPSVFIFPPSDEQLKSGTASVVCLLNNFYPREAKVQWKVDNALQSGNSQESVTEQDSKDSTYSLSSTLTLSKADYEKHKVYACEVTHQGLSSPVTKSFNRGEC
notes: as for B1
KD fold (SG1 = 1) [2]: 3.9 fold

B6: M103205H795-MY052/M103202L889-SK1 (antibody, human IgG1, kappa, name in EU numbering)
heavy: QVTLKESGPVLVKPTETLTLTCTVSGIDLSHDDISWVRQAPGKGLEWVGIISYAGSTYYASWAKGRLTISKDTSKNQVVLTMTNMDPVDTATYYCARGVPAYSHGGDLWGQGTLVTVSSASTKGPSVFPLAPSSKSTSGGTAALGCLVKDYFPEPVTVSWNSGALTSGVHTFPAVLQSSGLYSLSSVVTVPSSSLGTQTYICNVNHKPSNTKVDKKVEPKSCDKTHTCPPCPAPELLNGPSVFLFPPKPKDTLMISRTPEVTCVVVDVSEEDPEVKFNWYVDGVEVHNAKTKPREEQYNSTYRVVSVLTVLHQDWLNGKEYKCKVSNKALPAPIEKTISKAKGQPREPQVYTLPPSREEMTKNQVSLTCLVKGFYPSDIAVEWESNGQPENNYKTTPMVLDSDGSFFLYSKLTVDKSRWQQGNVFSCSVMHEALHNHYTQKSLSLSP
light: DIVMTQSPATLSLSPGERATLSCTSSQSVYHANWLSWFQQKPGQPPKLLIYWASTLAYGVPSRFSGSGSGTDFTLTISSLQPEDAATYYCAGGYGGGRYAFGQGTKVEIKRTVAAPSVFIFPPSDEQLKSGTASVVCLLNNFYPREAKVQWKVDNALQSGNSQESVTEQDSKDSTYSLSSTLTLSKADYEKHKVYACEVTHQGLSSPVTKSFNRGEC
notes: as for B2
Kd [3]: 1500 nM | KD fold (SG1 = 1) [5]: 0.24 fold | KD fold (SG1 = 1) [10]: 2.5 fold

B7: M103205H795-MY048/M103202L889-SK1 (antibody, human IgG1, kappa, name in EU numbering)
heavy: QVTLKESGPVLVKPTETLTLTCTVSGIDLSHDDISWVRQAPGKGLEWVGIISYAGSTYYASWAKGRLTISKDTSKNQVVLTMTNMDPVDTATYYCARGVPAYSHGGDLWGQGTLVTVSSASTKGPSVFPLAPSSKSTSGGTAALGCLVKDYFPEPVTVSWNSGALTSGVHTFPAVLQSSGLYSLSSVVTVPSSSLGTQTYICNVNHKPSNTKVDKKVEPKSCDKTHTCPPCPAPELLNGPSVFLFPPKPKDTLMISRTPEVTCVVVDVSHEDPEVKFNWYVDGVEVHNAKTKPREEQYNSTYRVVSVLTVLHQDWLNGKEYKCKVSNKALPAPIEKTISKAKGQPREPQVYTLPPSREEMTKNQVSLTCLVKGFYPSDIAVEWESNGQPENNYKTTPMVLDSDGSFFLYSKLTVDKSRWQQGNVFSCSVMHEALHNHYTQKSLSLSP
light: DIVMTQSPATLSLSPGERATLSCTSSQSVYHANWLSWFQQKPGQPPKLLIYWASTLAYGVPSRFSGSGSGTDFTLTISSLQPEDAATYYCAGGYGGGRYAFGQGTKVEIKRTVAAPSVFIFPPSDEQLKSGTASVVCLLNNFYPREAKVQWKVDNALQSGNSQESVTEQDSKDSTYSLSSTLTLSKADYEKHKVYACEVTHQGLSSPVTKSFNRGEC
notes: as for B2
Kd [11]: 7000 nM | Kd [3]: 5400 nM | Kd [8]: 1400 nM | KD fold (SG1 = 1) [5]: 0.07 fold | KD fold (SG1 = 1) [10]: 2.5 fold
